Consider 32 sequences from the supplement of paper PMC12764529.

± gives the half width of the 95% confidence interval.

The nature of series [1]: folding stability dG unfold (combined trypsin and chymotrypsin); higher = more stable. Put shortly: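 Only designs with AlphaFold2 dimer inter-PAE above 15 were retained; each was a mini-protein under 80 residues with no cysteine, in a PA-tagged cDNA display construct. After digestion with trypsin and chymotrypsin and sequencing, K50 was inferred by Bayesian fitting of counts, and unfolding free energy was derived per protease or combined against a sequence-predicted unfolded-state K50 and a shared folded-state K50.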

Series [2] in a line: folding stability dG unfold from trypsin proteolysis; higher = more stable. The protocol: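 Folding stability of de novo designed mini-proteins (<80 aa, no Cys; designed by TrROS, TrMRF, ProteinMPNN and the joint model) was measured by cDNA display proteolysis with trypsin and chymotrypsin. Each protease was used at 11 concentrations in a threefold dilution series plus a no-protease condition. K50 was inferred by Bayesian fitting of sequencing counts, and dG unfold was derived against a sequence-predicted unfolded-state K50 (Tsuboyama et al. method). Sequences shown include variable-length N-terminal GS-type padding (SAGGSAGG...) inside a display construct carrying a PA tag. Rows were kept only if the AF2 dimer inter-PAE was >15, to exclude likely homo-oligomers.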

Turning to “SAGGSAGGAEITIELTEDGTLRITVDGKKLEIRLEPAPPPVEVKTERVLDPDTDELTTRTETVLSAGGSAGG [r6_34_TrROS_Hall]”, the “folding stability dG unfold” value in series [1] was -0.548 ± 0.43 kcal/mol; in series [2], 0.203 ± 0.19 kcal/mol.

Take “SAGGSAGGDGDFRVSIDPEELPDGQEYKISIQSPDGKPIAEIPIRIPLPPPKPERDDNGKPKPVSAGGSAGG [r6_487_TrROS]”: the figures for the “folding stability dG unfold” value in series [1] and in series [2] were 0.216 ± 0.099 kcal/mol and 0.844 ± 0.025 kcal/mol, respectively.

Regarding “SAGGSAGGEPRELEAEVEVIEFPPTGVALAVIRVNDGAEPRLIPVPFDAPEDVTPEELAKKILGSAGGSAGG [r6_20_TrMRF]”, the entries for the “folding stability dG unfold” value in series [1] and in series [2] were below -1 kcal/mol and -0.826 ± 0.63 kcal/mol, respectively.

Turning to “SAGGSAGGKIEIVIEGLSEEEVEALAKELRDAGLEIEVTVVPPPAPPPLTAEELAKNPEALKALSAGGSAGG [r6_804_TrROS_Hall]”, the “folding stability dG unfold” value in series [1] was 0.02 ± 0.26 kcal/mol; in series [2], 0.714 ± 0.053 kcal/mol.

Regarding “SAGGSAGGKIRILEEEEDPANGERRLMVMVHNPKGKPHQYPVPLDDADEILEHLPPGMPVEIYPSAGGSAGG [r6_113_TrROS]”, the “folding stability dG unfold” value in series [1] is -0.514 ± 0.97 kcal/mol; in series [2], 0.362 ± 0.097 kcal/mol.

As for “SAGGSAGGKKKFKVEKITEIKVEKLENGEEVIVKIRLKNGEEIEIPAKDIKLEDLPEGAEIEVISAGGSAGG [r6_609_TrROS_Hall]”, the “folding stability dG unfold” value in series [1] is below -1 kcal/mol; in series [2], 0.123 ± 0.34 kcal/mol.

In the case of “SAGGSAGGMNKIKVTTSVTTFEETVLAGNKTFTVTLLKKTTTITDPNSSKVTTITETKSPEELSSAGGSAGG [r6_752_JUSTAS]”, the “folding stability dG unfold” value is -0.135 ± 0.27 kcal/mol in series [1] and 0.294 ± 0.27 kcal/mol in series [2].

On to “SAGGSAGGMVTFDTPEELEALIEELLARHPRDVPVDVTIESEDSRYTIKVAPERVEEISESEGSSAGGSAGG [r6_289_JUSTAS]”, for which the entries for the “folding stability dG unfold” value in series [1] and in series [2] were below -1 kcal/mol and -0.763 ± 0.47 kcal/mol, respectively.

Take “SAGGSAGGMVTVELPGLPTPEEARARAEEVVAAIVAAGHPGEEVTLTVVYPGSGAAETFTVPLASAGGSAGG [r6_238_JUSTAS]”: the “folding stability dG unfold” value in series [1] is -0.328 ± 0.22 kcal/mol; in series [2], 0.225 ± 0.059 kcal/mol.

Consider “SAGGSAGGSAGDEKVPFFVRIIDPKNGKPVREFPVEVDPGKIKIPKELAENMPPDNVEIYSAGGSAGGSAGG [r11_725_TrROS]”, for which the “folding stability dG unfold” value in series [1] is below -1 kcal/mol; in series [2] it was -0.824 ± 0.4 kcal/mol.

As for “SAGGSAGGSAGEEIIRAAKEAAKAGKKVRIVVPKGMSAEEIAKKLAEELNIEKVEVYELPSAGGSAGGSAGG [r11_524_TrROS_Hall]”, the “folding stability dG unfold” value is -0.142 ± 0.11 kcal/mol in series [1] and 0.332 ± 0.086 kcal/mol in series [2].

Consider “SAGGSAGGSAGGALVVEVEVEGERRTLVVPVPDEIPPGAEEVAKKLGLKDAKVKIAPLDLSAGGSAGGSAGG [r11_219_TrMRF]”, for which the “folding stability dG unfold” value was below -1 kcal/mol in series [1] and -0.662 ± 0.53 kcal/mol in series [2].

Consider “SAGGSAGGSAGGGAMSPEPLGFKKVETKVEVVGGSPVIVVKLETPEGELELELPPDAKLSAGGSAGGSAGGS [r10_968_JUSTAS]”, for which the “folding stability dG unfold” value in series [1] was below -1 kcal/mol; in series [2], -0.308 ± 0.12 kcal/mol.

“SAGGSAGGSAGGGLYNVVVTGKGEERVLPAKSPDDVKEALEEAGLEIKSIHPETGIVEAGSAGGSAGGSAGG [r7_726_TrMRF]”: the “folding stability dG unfold” value is below -1 kcal/mol in series [1] and -0.471 ± 0.18 kcal/mol in series [2].

“SAGGSAGGSAGGIEELAKKYPNIKIVEVKTVKVTETNKDGKKTEKTKTEIKIYKDGEEISAGGSAGGSAGGS [r10_0_TrROS_Hall]”: the results for the “folding stability dG unfold” value in series [1] and in series [2] were below -1 kcal/mol and -0.0124 ± 0.2 kcal/mol, respectively.

Take “SAGGSAGGSAGGKIKVVFELPDAPLFLVAEADSPEELLERAVKLEEELGVPLKVVKVEGSAGGSAGGSAGGS [r10_1087_TrMRF]”: the “folding stability dG unfold” value in series [1] is below -1 kcal/mol; in series [2] it was -0.509 ± 0.23 kcal/mol.

Regarding “SAGGSAGGSAGGKNMQEVPFPIEIKDPKNGKKIKIPVEVRRNPDDGKYQITPEALEELIKSAGGSAGGSAGG [r7_557_TrROS]”, the “folding stability dG unfold” value in series [1] is below -1 kcal/mol; in series [2], -0.809 ± 0.31 kcal/mol.

Turning to “SAGGSAGGSAGGMEGFTAVTFTTTTSSNGTRTTTVTTTTPDGTVTTTTTTTPVTPPPNTASAGGSAGGSAGG [r11_998_JUSTAS]”, the results for the “folding stability dG unfold” value in series [1] and in series [2] were 0.155 ± 0.14 kcal/mol and 0.503 ± 0.07 kcal/mol, respectively.

For “SAGGSAGGSAGGMITIEEDPNKDLKTVTVYVPEKPKWVTVDVKPSETIEEALAKAEELLKSAGGSAGGSAGG [r7_138_JUSTAS]”, the entries for the “folding stability dG unfold” value in series [1] and in series [2] were -0.514 ± 0.18 kcal/mol and 0.0308 ± 0.064 kcal/mol, respectively.

Regarding “SAGGSAGGSAGGMKIVLKVPENNPEAEKEAKKLKEEPGLKEVEVEFIPKSLVPEEPVLLSAGGSAGGSAGGS [r10_1110_JUSTAS]”, the “folding stability dG unfold” value in series [1] was below -1 kcal/mol; in series [2], -0.334 ± 0.28 kcal/mol.

In the case of “SAGGSAGGSAGGMLVLIKTPKKPVLLSEEEVKSNPELLEKLKEEGFPIDGIEFLDKEKLSAGGSAGGSAGGS [r10_396_JUSTAS]”, the “folding stability dG unfold” value is -0.451 ± 0.31 kcal/mol in series [1] and -0.185 ± 0.1 kcal/mol in series [2].

Take “SAGGSAGGSAGGMNTNPKFVSEEDDKEIYREYNPSTGKETYIIYYPKPNTKKIVPPELISAGGSAGGSAGGS [r10_172_JUSTAS]”: the “folding stability dG unfold” value in series [1] is below -1 kcal/mol; in series [2], -0.634 ± 0.23 kcal/mol.

Turning to “SAGGSAGGSAGGMPELTVETEGFPDGSYRVVVTNPGTGELVAVAERPSSTSVADFAKELASAGGSAGGSAGG [r7_633_TrMRF]”, the “folding stability dG unfold” value is below -1 kcal/mol in series [1] and -0.688 ± 0.13 kcal/mol in series [2].

“SAGGSAGGSAGGMPLNFSTVETEELPELGATVTTSTAPGYILTETRTPEGVEVQRYPALLSAGGSAGGSAGG [r7_280_JUSTAS]”: the entries for the “folding stability dG unfold” value in series [1] and in series [2] were 0.108 ± 0.2 kcal/mol and 0.86 ± 0.068 kcal/mol, respectively.

In the case of “SAGGSAGGSAGGMPVTVEVKEEELPGGEKVITVTVTYPDPVVETLEVKKLPPVDPNNKPSAGGSAGGSAGGS [r10_684_JUSTAS]”, the “folding stability dG unfold” value in series [1] is -0.103 ± 0.3 kcal/mol; in series [2], 0.294 ± 0.1 kcal/mol.

Regarding “SAGGSAGGSAGGMTIKEIMKRFPGGGEIDITEIPGDRITIEMRFPNGNNRRRTIPPDEISAGGSAGGSAGGS [r10_612_TrROS]”, the “folding stability dG unfold” value in series [1] was -0.582 ± 0.33 kcal/mol; in series [2] it was -0.04 ± 0.34 kcal/mol.

Take “SAGGSAGGSAGGMVRFPDGKEVETESEEELEELLKGVPVEEITIEDPEEKGEKKIPVKLSAGGSAGGSAGGS [r10_1191_JUSTAS]”: the “folding stability dG unfold” value is -0.942 ± 0.48 kcal/mol in series [1] and 0.137 ± 0.044 kcal/mol in series [2].

Regarding “SAGGSAGGSAGGNEDDNVPIGEKTVVKKVPPSSPVTITETIYRRPSTGTTSTTEKVIIESAGGSAGGSAGGS [r10_6_JUSTAS]”, the “folding stability dG unfold” value in series [1] was below -1 kcal/mol; in series [2], -1.12 ± 0.42 kcal/mol.

For “SAGGSAGGSAGGNKEVEIPIMIYWPDPNGKPNMHTVEIDMPNNDLPDIKDWAEDNPWTIMSAGGSAGGSAGG [r7_539_TrROS]”, the entries for the “folding stability dG unfold” value in series [1] and in series [2] were -0.532 ± 0.22 kcal/mol and 0.287 ± 0.05 kcal/mol, respectively.

With “SAGGSAGGSAGGPSAVSSSSSSRTTTVPGTGTPLRVSSTTTTLDAATGASTTTTTTSPGASAGGSAGGSAGG [r11_1029_JUSTAS]”, the entries for the “folding stability dG unfold” value in series [1] and in series [2] were below -1 kcal/mol and -0.553 ± 0.13 kcal/mol, respectively.

In the case of “SAGGSAGGSAGGSAVERIIKEMREKFPPGKEVEIPIEVRTDNGNYVPIEIEFRIPPDQPSAGGSAGGSAGGS [r10_11_TrROS]”, the “folding stability dG unfold” value in series [1] is below -1 kcal/mol; in series [2], -0.557 ± 0.4 kcal/mol.

Consider “SAGGSAGGSAGGSGPEPKFTVEVDPEKDEVTFLVELEDKPLLLVVKDWPEDDPLLKNAFSAGGSAGGSAGGS [r4_328_TrMRF]”, for which the “folding stability dG unfold” value is 0.0825 ± 0.29 kcal/mol in series [1] and 0.388 ± 0.097 kcal/mol in series [2].
